B1: CE115HA000/GLS3000 S27eW (antibody, IgG1, name in Kabat numbering, V domains shown)
VH: QVQLVESGGGVVQPGRSLRLSCAASGFTFSNAWMHWVRQAPGKGLEWVAQIKAKSNNYATYYAESVKGRFTISRDDSKNSLYLQMNSLKTEDTAVYYCRYVHYGAYYGVDAWGQGTTVTVSS
VL: DIVMTQSPLSLPVTPGEPASISCRSSQSLVHWNRNTYLHWYQQKPGQAPRLLIYKVSNRFSGVPDRFSGSGSGTDFTLKISRVEAEDVGVYYCGQGTQVPYTFGQGTKLEIK
notes: one-arm IgG1
B2: CE115HA000/GLS3000 S52A (antibody, IgG1, name in Kabat numbering, V domains shown)
VH: QVQLVESGGGVVQPGRSLRLSCAASGFTFSNAWMHWVRQAPGKGLEWVAQIKAKSNNYATYYAESVKGRFTISRDDSKNSLYLQMNSLKTEDTAVYYCRYVHYGAYYGVDAWGQGTTVTVSS
VL: DIVMTQSPLSLPVTPGEPASISCRSSQSLVHSNRNTYLHWYQQKPGQAPRLLIYKVANRFSGVPDRFSGSGSGTDFTLKISRVEAEDVGVYYCGQGTQVPYTFGQGTKLEIK
notes: one-arm IgG1
B3: CE115HA000/GLS3000 S52Q (antibody, IgG1, name in Kabat numbering, V domains shown)
VH: QVQLVESGGGVVQPGRSLRLSCAASGFTFSNAWMHWVRQAPGKGLEWVAQIKAKSNNYATYYAESVKGRFTISRDDSKNSLYLQMNSLKTEDTAVYYCRYVHYGAYYGVDAWGQGTTVTVSS
VL: DIVMTQSPLSLPVTPGEPASISCRSSQSLVHSNRNTYLHWYQQKPGQAPRLLIYKVQNRFSGVPDRFSGSGSGTDFTLKISRVEAEDVGVYYCGQGTQVPYTFGQGTKLEIK
notes: one-arm IgG1
B4: CE115HA000/GLS3000 S56D (antibody, IgG1, name in Kabat numbering, V domains shown)
VH: QVQLVESGGGVVQPGRSLRLSCAASGFTFSNAWMHWVRQAPGKGLEWVAQIKAKSNNYATYYAESVKGRFTISRDDSKNSLYLQMNSLKTEDTAVYYCRYVHYGAYYGVDAWGQGTTVTVSS
VL: DIVMTQSPLSLPVTPGEPASISCRSSQSLVHSNRNTYLHWYQQKPGQAPRLLIYKVSNRFDGVPDRFSGSGSGTDFTLKISRVEAEDVGVYYCGQGTQVPYTFGQGTKLEIK
notes: one-arm IgG1
B5: CE115HA000/GLS3000 S56A (antibody, IgG1, name in Kabat numbering, V domains shown)
VH: QVQLVESGGGVVQPGRSLRLSCAASGFTFSNAWMHWVRQAPGKGLEWVAQIKAKSNNYATYYAESVKGRFTISRDDSKNSLYLQMNSLKTEDTAVYYCRYVHYGAYYGVDAWGQGTTVTVSS
VL: DIVMTQSPLSLPVTPGEPASISCRSSQSLVHSNRNTYLHWYQQKPGQAPRLLIYKVSNRFAGVPDRFSGSGSGTDFTLKISRVEAEDVGVYYCGQGTQVPYTFGQGTKLEIK
notes: one-arm IgG1
B6: CE115HA000/GLS3000 S52D (antibody, IgG1, name in Kabat numbering, V domains shown)
VH: QVQLVESGGGVVQPGRSLRLSCAASGFTFSNAWMHWVRQAPGKGLEWVAQIKAKSNNYATYYAESVKGRFTISRDDSKNSLYLQMNSLKTEDTAVYYCRYVHYGAYYGVDAWGQGTTVTVSS
VL: DIVMTQSPLSLPVTPGEPASISCRSSQSLVHSNRNTYLHWYQQKPGQAPRLLIYKVDNRFSGVPDRFSGSGSGTDFTLKISRVEAEDVGVYYCGQGTQVPYTFGQGTKLEIK
notes: one-arm IgG1
B7: CE115HA000/GLS3000 S56G (antibody, IgG1, name in Kabat numbering, V domains shown)
VH: QVQLVESGGGVVQPGRSLRLSCAASGFTFSNAWMHWVRQAPGKGLEWVAQIKAKSNNYATYYAESVKGRFTISRDDSKNSLYLQMNSLKTEDTAVYYCRYVHYGAYYGVDAWGQGTTVTVSS
VL: DIVMTQSPLSLPVTPGEPASISCRSSQSLVHSNRNTYLHWYQQKPGQAPRLLIYKVSNRFGGVPDRFSGSGSGTDFTLKISRVEAEDVGVYYCGQGTQVPYTFGQGTKLEIK
notes: one-arm IgG1
B8: CE115HA000/GLS3000 S52P (antibody, IgG1, name in Kabat numbering, V domains shown)
VH: QVQLVESGGGVVQPGRSLRLSCAASGFTFSNAWMHWVRQAPGKGLEWVAQIKAKSNNYATYYAESVKGRFTISRDDSKNSLYLQMNSLKTEDTAVYYCRYVHYGAYYGVDAWGQGTTVTVSS
VL: DIVMTQSPLSLPVTPGEPASISCRSSQSLVHSNRNTYLHWYQQKPGQAPRLLIYKVPNRFSGVPDRFSGSGSGTDFTLKISRVEAEDVGVYYCGQGTQVPYTFGQGTKLEIK
notes: one-arm IgG1
B9: CE115HA000/GLS3000 S56E (antibody, IgG1, name in Kabat numbering, V domains shown)
VH: QVQLVESGGGVVQPGRSLRLSCAASGFTFSNAWMHWVRQAPGKGLEWVAQIKAKSNNYATYYAESVKGRFTISRDDSKNSLYLQMNSLKTEDTAVYYCRYVHYGAYYGVDAWGQGTTVTVSS
VL: DIVMTQSPLSLPVTPGEPASISCRSSQSLVHSNRNTYLHWYQQKPGQAPRLLIYKVSNRFEGVPDRFSGSGSGTDFTLKISRVEAEDVGVYYCGQGTQVPYTFGQGTKLEIK
notes: one-arm IgG1
B10: CE115HA000/GLS3000 S56K (antibody, IgG1, name in Kabat numbering, V domains shown)
VH: QVQLVESGGGVVQPGRSLRLSCAASGFTFSNAWMHWVRQAPGKGLEWVAQIKAKSNNYATYYAESVKGRFTISRDDSKNSLYLQMNSLKTEDTAVYYCRYVHYGAYYGVDAWGQGTTVTVSS
VL: DIVMTQSPLSLPVTPGEPASISCRSSQSLVHSNRNTYLHWYQQKPGQAPRLLIYKVSNRFKGVPDRFSGSGSGTDFTLKISRVEAEDVGVYYCGQGTQVPYTFGQGTKLEIK
notes: one-arm IgG1
B11: CE115HA000/GLS3000 S56Q (antibody, IgG1, name in Kabat numbering, V domains shown)
VH: QVQLVESGGGVVQPGRSLRLSCAASGFTFSNAWMHWVRQAPGKGLEWVAQIKAKSNNYATYYAESVKGRFTISRDDSKNSLYLQMNSLKTEDTAVYYCRYVHYGAYYGVDAWGQGTTVTVSS
VL: DIVMTQSPLSLPVTPGEPASISCRSSQSLVHSNRNTYLHWYQQKPGQAPRLLIYKVSNRFQGVPDRFSGSGSGTDFTLKISRVEAEDVGVYYCGQGTQVPYTFGQGTKLEIK
notes: one-arm IgG1
B12: CE115HA000/GLS3000 S56M (antibody, IgG1, name in Kabat numbering, V domains shown)
VH: QVQLVESGGGVVQPGRSLRLSCAASGFTFSNAWMHWVRQAPGKGLEWVAQIKAKSNNYATYYAESVKGRFTISRDDSKNSLYLQMNSLKTEDTAVYYCRYVHYGAYYGVDAWGQGTTVTVSS
VL: DIVMTQSPLSLPVTPGEPASISCRSSQSLVHSNRNTYLHWYQQKPGQAPRLLIYKVSNRFMGVPDRFSGSGSGTDFTLKISRVEAEDVGVYYCGQGTQVPYTFGQGTKLEIK
notes: one-arm IgG1
B13: CE115HA000/GLS3000 S56P (antibody, IgG1, name in Kabat numbering, V domains shown)
VH: QVQLVESGGGVVQPGRSLRLSCAASGFTFSNAWMHWVRQAPGKGLEWVAQIKAKSNNYATYYAESVKGRFTISRDDSKNSLYLQMNSLKTEDTAVYYCRYVHYGAYYGVDAWGQGTTVTVSS
VL: DIVMTQSPLSLPVTPGEPASISCRSSQSLVHSNRNTYLHWYQQKPGQAPRLLIYKVSNRFPGVPDRFSGSGSGTDFTLKISRVEAEDVGVYYCGQGTQVPYTFGQGTKLEIK
notes: one-arm IgG1
B14: CE115HA000/GLS3000 S56H (antibody, IgG1, name in Kabat numbering, V domains shown)
VH: QVQLVESGGGVVQPGRSLRLSCAASGFTFSNAWMHWVRQAPGKGLEWVAQIKAKSNNYATYYAESVKGRFTISRDDSKNSLYLQMNSLKTEDTAVYYCRYVHYGAYYGVDAWGQGTTVTVSS
VL: DIVMTQSPLSLPVTPGEPASISCRSSQSLVHSNRNTYLHWYQQKPGQAPRLLIYKVSNRFHGVPDRFSGSGSGTDFTLKISRVEAEDVGVYYCGQGTQVPYTFGQGTKLEIK
notes: one-arm IgG1
B15: CE115HA000/GLS3000 S56N (antibody, IgG1, name in Kabat numbering, V domains shown)
VH: QVQLVESGGGVVQPGRSLRLSCAASGFTFSNAWMHWVRQAPGKGLEWVAQIKAKSNNYATYYAESVKGRFTISRDDSKNSLYLQMNSLKTEDTAVYYCRYVHYGAYYGVDAWGQGTTVTVSS
VL: DIVMTQSPLSLPVTPGEPASISCRSSQSLVHSNRNTYLHWYQQKPGQAPRLLIYKVSNRFNGVPDRFSGSGSGTDFTLKISRVEAEDVGVYYCGQGTQVPYTFGQGTKLEIK
notes: one-arm IgG1
B16: CE115HA000/GLS3000 S56R (antibody, IgG1, name in Kabat numbering, V domains shown)
VH: QVQLVESGGGVVQPGRSLRLSCAASGFTFSNAWMHWVRQAPGKGLEWVAQIKAKSNNYATYYAESVKGRFTISRDDSKNSLYLQMNSLKTEDTAVYYCRYVHYGAYYGVDAWGQGTTVTVSS
VL: DIVMTQSPLSLPVTPGEPASISCRSSQSLVHSNRNTYLHWYQQKPGQAPRLLIYKVSNRFRGVPDRFSGSGSGTDFTLKISRVEAEDVGVYYCGQGTQVPYTFGQGTKLEIK
notes: one-arm IgG1
B17: CE115HA000/GLS3000 S56L (antibody, IgG1, name in Kabat numbering, V domains shown)
VH: QVQLVESGGGVVQPGRSLRLSCAASGFTFSNAWMHWVRQAPGKGLEWVAQIKAKSNNYATYYAESVKGRFTISRDDSKNSLYLQMNSLKTEDTAVYYCRYVHYGAYYGVDAWGQGTTVTVSS
VL: DIVMTQSPLSLPVTPGEPASISCRSSQSLVHSNRNTYLHWYQQKPGQAPRLLIYKVSNRFLGVPDRFSGSGSGTDFTLKISRVEAEDVGVYYCGQGTQVPYTFGQGTKLEIK
notes: one-arm IgG1
B18: CE115HA000/GLS3000 S27eY (antibody, IgG1, name in Kabat numbering, V domains shown)
VH: QVQLVESGGGVVQPGRSLRLSCAASGFTFSNAWMHWVRQAPGKGLEWVAQIKAKSNNYATYYAESVKGRFTISRDDSKNSLYLQMNSLKTEDTAVYYCRYVHYGAYYGVDAWGQGTTVTVSS
VL: DIVMTQSPLSLPVTPGEPASISCRSSQSLVHYNRNTYLHWYQQKPGQAPRLLIYKVSNRFSGVPDRFSGSGSGTDFTLKISRVEAEDVGVYYCGQGTQVPYTFGQGTKLEIK
notes: one-arm IgG1
B19: CE115HA000/GLS3000 S52Y (antibody, IgG1, name in Kabat numbering, V domains shown)
VH: QVQLVESGGGVVQPGRSLRLSCAASGFTFSNAWMHWVRQAPGKGLEWVAQIKAKSNNYATYYAESVKGRFTISRDDSKNSLYLQMNSLKTEDTAVYYCRYVHYGAYYGVDAWGQGTTVTVSS
VL: DIVMTQSPLSLPVTPGEPASISCRSSQSLVHSNRNTYLHWYQQKPGQAPRLLIYKVYNRFSGVPDRFSGSGSGTDFTLKISRVEAEDVGVYYCGQGTQVPYTFGQGTKLEIK
notes: one-arm IgG1
B20: CE115HA000/GLS3000 S56I (antibody, IgG1, name in Kabat numbering, V domains shown)
VH: QVQLVESGGGVVQPGRSLRLSCAASGFTFSNAWMHWVRQAPGKGLEWVAQIKAKSNNYATYYAESVKGRFTISRDDSKNSLYLQMNSLKTEDTAVYYCRYVHYGAYYGVDAWGQGTTVTVSS
VL: DIVMTQSPLSLPVTPGEPASISCRSSQSLVHSNRNTYLHWYQQKPGQAPRLLIYKVSNRFIGVPDRFSGSGSGTDFTLKISRVEAEDVGVYYCGQGTQVPYTFGQGTKLEIK
notes: one-arm IgG1
B21: CE115HA000/GLS3000 S56F (antibody, IgG1, name in Kabat numbering, V domains shown)
VH: QVQLVESGGGVVQPGRSLRLSCAASGFTFSNAWMHWVRQAPGKGLEWVAQIKAKSNNYATYYAESVKGRFTISRDDSKNSLYLQMNSLKTEDTAVYYCRYVHYGAYYGVDAWGQGTTVTVSS
VL: DIVMTQSPLSLPVTPGEPASISCRSSQSLVHSNRNTYLHWYQQKPGQAPRLLIYKVSNRFFGVPDRFSGSGSGTDFTLKISRVEAEDVGVYYCGQGTQVPYTFGQGTKLEIK
notes: one-arm IgG1

T1 sequence (P07766 23-126): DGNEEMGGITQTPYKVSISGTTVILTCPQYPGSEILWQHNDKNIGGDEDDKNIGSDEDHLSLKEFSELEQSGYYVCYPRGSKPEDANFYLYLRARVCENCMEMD

The assay concerns the target T1, CD3 epsilon homodimer protein (UniProt P07766 23-126).
T1 construct: also called CD3 (CD3 epsilon)
The assay is described as follows: SPR, antibody over immobilised CD3e homodimer.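 Note: SPR at 25 °C with CD3 epsilon homodimer amine-coupled to a CM4 sensor chip and antibody flowed over as analyte in HBS-EP+ running buffer.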 For orientation: Surface plasmon resonance follows binding to a sensor surface in real time, without labels.
Consider B1, for which the “KD ratio to GLS3000” value was 1.32.

In the case of B2, the “KD ratio to GLS3000” value was determined as 0.9.

As for B3, the “KD ratio to GLS3000” value was determined as 1.01.

As for B4, the “KD ratio to GLS3000” value turned out to be 1.11.

As to B5, the “KD ratio to GLS3000” value came to 1.18.

With B6, the “KD ratio to GLS3000” value was 0.94.

For the molecule B7, the “KD ratio to GLS3000” value is 0.99.

Regarding B8, the “KD ratio to GLS3000” value was 7.38.

Consider B9, for which the “KD ratio to GLS3000” value was determined as 0.91.

B10: the “KD ratio to GLS3000” value came to 1.21.

Regarding B11, the “KD ratio to GLS3000” value was found to be 0.97.

With B12, the “KD ratio to GLS3000” value came out at 0.93.

Take B13: the “KD ratio to GLS3000” value amounted to 0.98.

On to B14, for which the “KD ratio to GLS3000” value amounted to 0.96.

Regarding B15, the “KD ratio to GLS3000” value is 0.9.

For B16, the “KD ratio to GLS3000” value is 1.15.

Regarding B17, the “KD ratio to GLS3000” value is 1.03.

For the molecule B18, the “KD ratio to GLS3000” value was determined as 1.1.

As for B19, the “KD ratio to GLS3000” value stood at 1.02.

Turning to B20, the “KD ratio to GLS3000” value was found to be 1.01.

With B21, the “KD ratio to GLS3000” value was 1.12.

The values above are taken from patent US20210388087A1 (Chugai, published 2021).
